These are literature values, as cited in patent US20230142365A1, “POLY(SARCOSINE) POLYMER EXCIPIENTS” (CALUSA BIO, LLC, priority 2021, published 2023).

The test system of the series is anti-drug antibodies (ADAs). The following applies: share of anti-drug antibodies against the TNF blocker that are neutralizing; van Schie et al. 2015.

For the substance adalimumab, the ADAs neutralizing is 97%.
Consider “infliximab: tumor necrosis factor (TNF) blocker Remicade (infliximab)”, for which the ADAs neutralizing is listed as 90%.
